From the RNAGym collection of RNA variant scans (doi:10.1021/acssynbio.7b00057)

B1: Pistol ribozyme (parent)
chain: GGGUCGUUGUUCCAUAAUCGCGUGGAUAUGGCACGCAAGUUUCUACCGGGCACCGUAAAUGUCCGACUGGAGCCGUUCGGGCGGCUAUAAACAGACCUCAGGCCCGAAGCGUGGCGGCACCUGCCGCCGGUGGUAAAAAAGAUCGGAAGAGCACACGUCU

Variants of: B1
Assay: aptazyme ON/OFF ratio, guanine; higher = stronger switching; co-transcriptional cleavage with and without guanine

Variant	aptazyme ON/OFF ratio
U7A G9U U10C C12A C13G	1.14
U7A G9U U10C C12A C13U	1.16
U7A G9U U10C C12A C13A	1.21
U7A G9C U11G	1.41
U7A G9C U11A	1.11
U7A G9C U11C	1.07
U7A G9C U10C U11A C12U	1.04
U7A G9C U10C U11A C12G	1.1
U7A G9C U10C U11A C12A	1.06
U7A G9C U10C U11A C12A C13U	1.03
U7A G9C U10C U11A C12A C13G	1.06
U7A G9C U10C U11A C12A C13A	1.07
U7A G9C U10C U11C	0.989
U7A G9C U10C U11A	1.07
U7A G9C U10C U11G	1.02
U7A G9C U11C C12G C13U	1.09
U7A G9C U11C C12G C13A	1.07
U7A G9C U11C C12G C13G	1.09
U7A G9U U10A U11G C12G C13U	1.18
U7A G9U U10A U11G C12G C13G	1.2
U7A G9U U10A U11G C12G C13A	1.16
U7A G9C U11C C12U C13U	1.16
U7A G9C U11C C12U C13A	1.04
U7A G9C U11C C12U C13G	1.12

Variant	aptazyme ON/OFF ratio
U7A G9U U10C C13U	1.18
U7A G9U U10C C13A	1.09
U7A G9U U10C C13G	1.02
U7A G9U U10C U11A C13U	1.1
U7A G9U U10C U11A C13A	1.14
U7A G9U U10C U11A C13G	1.1
U7A G9C U11G C12U C13U	1.32
U7A G9C U11G C12U C13G	1.36
U7A G9C U11G C12U C13A	1.42
U7A G9C U10G U11C C12G	1.08
U7A G9C U10G U11C C12A	1.08
U7A G9C U10G U11C C12U	1.04
U7A G9U U10C U11A C12A C13U	1.21
U7A G9U U10C U11A C12A C13A	1.2
U7A G9U U10C U11A C12A C13G	1.15
U7A G9C U10C U11G C12A C13G	1.05
U7A G9C U10C U11G C12A C13A	1.04
U7A G9C U10C U11G C12A C13U	1.02
U7A G9C U10G U11A C12A C13U	1.07
U7A G9C U10G U11A C12A C13A	1.07
U7A G9C U10G U11A C12A C13G	1.08
U7A G9U U10C	2.35
U7A G9U U10A	1.4
U7A G9C U10G U11A C12G	1.06

Variant	aptazyme ON/OFF ratio
U7A G9C U10G U11A C12U	1.04
U7A G9C U10G U11A C12A	1.1
U7A G9U U10A U11A C12U C13A	1.3
U7A G9U U10A U11A C12U C13G	1.15
U7A G9U U10A U11A C12U C13U	1.06
U7A G9C U10C C12U	1.17
U7A G9C U10C C12A	1.04
U7A G9C U10C C12G	1.07
U7A G9U U10A C12G	1.28
U7A G9U U10A C12U	1.22
U7A G9U U10A C12A	1.47
U7A G9C U10C C12U C13A	1.04
U7A G9C U10C C12U C13U	1.06
U7A G9C U10C C12U C13G	1.01
U7A G9C U10C U11A C12U C13U	1.06
U7A G9C U10C U11A C12U C13G	1.08
U7A G9C U10C U11A C12U C13A	1.04
U7A G9C U11G C12G	1.36
U7A G9C U11G C12A	1.19
U7A G9C U11G C12U	1.57
U7A G9U U10C C12U C13A	1.14
U7A G9U U10C C12U C13G	1.07
U7A G9U U10C C12U C13U	1.2
U7A G9C U10G U11G C12G C13U	1.16

Variant	aptazyme ON/OFF ratio
U7A G9C U10G U11G C12G C13G	1.13
U7A G9C U10G U11G C12G C13A	1.14
U7A G9U C12U C13U	1.21
U7A G9U C12U C13G	1.16
U7A G9U C12U C13A	1.19
U7A G9C U10A U11G C12G C13G	1.12
U7A G9C U10A U11G C12G C13A	1.06
U7A G9C U10A U11G C12G C13U	1.18
U7A G9U U10C U11G C12U	1.34
U7A G9U U10C U11G C12G	1.09
U7A G9U U10C U11G C12A	1.02
U7A G9C U10C U11A C12G C13G	1.16
U7A G9C U10C U11A C12G C13U	1.25
U7A G9C U10C U11A C12G C13A	1.16
U7A G9U C13G	1.05
U7A G9U C13U	1.35
U7A G9U C13A	1.29
U7A G9C U10G U11A C13G	1.06
U7A G9C U10G U11A C13A	1.02
U7A G9C U10G U11A C13U	1.05
U7A G9U U10C U11A C12G	1.23
U7A G9U U10C U11A C12U	1.23
U7A G9U U10C U11A C12A	1.15
U7A G9C U11C C13A	1.04

Variant	aptazyme ON/OFF ratio
U7A G9C U11C C13U	1.02
U7A G9C U11C C13G	1.04
U7A G9C U10G C12G C13G	1.1
U7A G9C U10G C12G C13U	1.1
U7A G9C U10G C12G C13A	1.07
U7A G9C U11A C12G	1.08
U7A G9C U11A C12U	1.09
U7A G9C U11A C12A	1.07
U7A G9C U10A U11G C12U C13G	1.07
U7A G9C U10A U11G C12U C13A	1.03
U7A G9C U10A U11G C12U C13U	1.16
U7A G9C U11C C12A C13U	1.08
U7A G9C U11C C12A C13G	1.05
U7A G9C U11C C12A C13A	1.06
U7A G9C U10G U11C C12U C13U	1.09
U7A G9C U10G U11C C12U C13G	1.07
U7A G9C U10G U11C C12U C13A	1.05
U7A G9U U10A U11C C12A C13G	1.24
U7A G9U U10A U11C C12A C13A	1.22
U7A G9U U10A U11C C12A C13U	1.17
U7A G9C U10G C12A	1.09
U7A G9C U10G C12G	1.11
U7A G9C U10G C12U	1.2
U7A G9U U10A U11C C12G C13G	1.06

Variant	aptazyme ON/OFF ratio
U7A G9U U10A U11C C12G C13U	1.13
U7A G9U U10A U11C C12G C13A	1.09
U7A G9C U10C U11C C12A	1.01
U7A G9C U10C U11C C12U	1.04
U7A G9C U10C U11C C12G	1.03
U7A G9U U10A U11A C12A	1.43
U7A G9U U10A U11A C12G	1.26
U7A G9U U10A U11A C12U	1.28
U7A G9U C12G C13U	1.3
U7A G9U C12G C13A	1.2
U7A G9U C12G C13G	1.3
U7A G9C U10A U11G C12A	1.04
U7A G9C U10A U11G C12G	1.09
U7A G9C U10A U11G C12U	1.07
U7A G9C U11A C12U C13U	1.16
U7A G9C U11A C12U C13A	1.1
U7A G9C U11A C12U C13G	1.07
U7A G9U U10C U11A C12G C13A	1.13
U7A G9U U10C U11A C12G C13G	1.14
U7A G9U U10C U11A C12G C13U	1.12
U7A G9C U10C U11C C12G C13U	1.02
U7A G9C U10C U11C C12G C13G	1.09
U7A G9C U10C U11C C12G C13A	1.06
U7A G9C U10C U11C C12U C13U	0.994

Variant	aptazyme ON/OFF ratio
U7A G9C U10C U11C C12U C13A	1.05
U7A G9C U10C U11C C12U C13G	1.04
U7A G9C U11A C12A C13U	1.11
U7A G9C U11A C12A C13A	1.03
U7A G9C U11A C12A C13G	1.05
U7A G9C U10C U11G C12G C13A	1.07
U7A G9C U10C U11G C12G C13U	1.05
U7A G9C U10C U11G C12G C13G	1.17
U7A G9C U10A U11C C13U	1.05
U7A G9C U10A U11C C13G	1.06
U7A G9U C12A	0.896
U7A G9U C12G	1.39
U7A G9U C12U	1.34
U7A G9U U10A U11A C12G C13A	1.11
U7A G9U U10A U11A C12G C13U	1.19
U7A G9U U10A U11A C12G C13G	1.25
U7A G9U U10C C12G C13U	1.4
U7A G9U U10C C12G C13A	1.07
U7A G9U U10C C12G C13G	1.29
U7A G9C U10C U11G C12U C13U	1.06
U7A G9C U10C U11G C12U C13G	1.04
U7A G9C U10C U11G C12U C13A	1.04
U7A G9C U10C C12A C13G	1.04
